Reference: US20240368249A1 (INTERVET, published 2024)

Key:
canine IL-31Rα (canine) [1] = experiment: ELISA, plate coated with cIL-31Rα at 1 µg/mL, detection with HRP anti-dog IgG Fc, OD450/540nm
canine IL-31Rα (canine) [2] = experiment: ELISA, plate coated with cIL-31Rα at 1 µg/mL, detection with HRP anti-dog IgG Fc, OD450/540
canine IL-13 = biological target: T1, canine IL-13 (canine, UniProt Q9N0W9 19-131, limits assumed, biotin-labeled in the OCTET assay); experiment: BLI (OCTET HTX), biotin-cIL-13 on SA biosensors
T1 construct: also called cIL-13; canine Interleukin-13
T1 sequence (looked up): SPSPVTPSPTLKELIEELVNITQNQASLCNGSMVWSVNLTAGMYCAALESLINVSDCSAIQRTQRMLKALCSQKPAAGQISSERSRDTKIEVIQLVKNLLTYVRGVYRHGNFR
Method: The binding constants for the cFc fusion proteins provided in Tables 3 and 4 below, were determined using OCTET® HTX. All kinetics measurements were performed by OCTET® HTX using SA® biosensors and DATA ACQUISITION® 12.0 software. 10 μg/mL of biotin-labeled antigen, either canine IL-4 (cIL-4) or canine IL-13 (cIL-13) were loaded onto the SA® biosensors for 120 seconds. Next, the biosensors were placed into 1×pH 7.0 TBS/Casein buffer for 60 seconds for the blocking phase. For the association phase, antigen loaded biosensors were placed into 2-fold serial dilutions from 1 μM down to 15.6 nM of the wild-type, the bispecific, or the FcRn-mutant receptor Fc-fusions that recognized the cIL-4 or cIL-13 antigen in 1×pH 7.0 TBS/Casein buffer for 30 seconds. The last well was buffer alone and that sensor was used for reference sensor subtraction. Finally, the biosensors were placed into 1×pH 7.0 TBS/Casein buffer for 120 seconds for the dissociation phase. The results were then analyzed using Data Analysis 12.0 software and the curves were fitted using a 1:1 binding model.

B1: Chimeric rat/canine 10A12 (antibody, V domains shown)
VH: EVQLVESGGGLVKPGRSMKLSCAASGFTFSNYYMAWVRQAPTKGLEWVASISTGGGNTYYRDSVKGRFTISRDNAKRTLYLQMDSLRSEDTATYYCGRHGTLYFDYWGQGVMVTVSS
VL: QFTLTQPKSVSGSLRSTITIPCERSSGDIGDSYVSWYQQHLGRPPINVIYVDDQRPSEVSDRFSGSIDSSSNSASLTITDLQMDDEADYFCQSYDSNIDGPVFGGGTKLTVLG
EC50 (canine IL-31Rα (canine) [1]): 0.518 ng/mL

B2: Caninized 28F12 H1k3 (antibody, V domains shown)
VH: EVQLVESGGDLVKPGGSLRLSCVASGFTFSDYYMAWVRQAPGKGLQWVATISYDGSSTYYRDSVRGRFTISRDNAKNTLYLQMNSLRAEDTAMYYCAKGPLTDWAPNWFAYWGQGTLVTVSS
VL: DIVMTQSPASLSLSQEEKVTITCQTSEDIYSGLAWYQQKPGQAPKLLIYGASRLEDGVPSRFSGSGSGTDFSFTISSLEPEDVAVYFCQQGLKYPNTFGAGTKVELKR
EC50 (canine IL-31Rα (canine) [2]): 1.74 ng/mL

B3: Caninized 28F12 H2k3 (antibody, V domains shown)
VH: EVQLVESGGDLVKPGGSLRLSCAASGFTFSDYYMAWVRQAPGKGLQWVATISYDGSSTYYRDSVRGRFTISRDNAKNTLYLQMNSLRAEDTAMYYCARGPLTDWAPNWFAYWGQGTLVTVSS
VL: DIVMTQSPASLSLSQEEKVTITCQTSEDIYSGLAWYQQKPGQAPKLLIYGASRLEDGVPSRFSGSGSGTDFSFTISSLEPEDVAVYFCQQGLKYPNTFGAGTKVELKR
EC50 (canine IL-31Rα (canine) [2]): 1.74 ng/mL

B4: Caninized 28F12 H2k2 (antibody, V domains shown)
VH: EVQLVESGGDLVKPGGSLRLSCAASGFTFSDYYMAWVRQAPGKGLQWVATISYDGSSTYYRDSVRGRFTISRDNAKNTLYLQMNSLRAEDTAMYYCARGPLTDWAPNWFAYWGQGTLVTVSS
VL: EIVMTQSPASLSLSQEEKVTITCQTSEDIYSGLAWYQQKPGQAPKLLIYGASRLEDGVPSRFSGSGSGTDFSFTISSLEPEDVAVYYCQQGLKYPNTFGAGTKVELKR
EC50 (canine IL-31Rα (canine) [2]): 1.74 ng/mL

B5: cIL-13Rα1-cIgGB-Fc-YTE CH2 Numbering (L18Y/A20T/T22E) (Fc fusion)
chain: GGVAAPTETQPPVTNLSVSVENLCTVIWTWDPPEGASPNCTLRYFSHFDNKQDKKIAPETHRSKEVPLNERICLQVGSQCSTNESDNPSILVEKCTPPPEGDPESAVTELQCVWHNLSYMKCTWLPGRNTSPDTNYTLYYWHSSLGKILQCEDIYREGQHIGCSFALTNLKDSSFEQHSVQIVVKDNAGKIRPSFNIVPLTSHVKPDPPHIKRLFFQNGNLYVQWKNPQNFYSRCLSYQVEVNNSQTETNDIFYVEEAKCQNSEFEGNLEGTICFMVPGVLPDTLNTVRIRVRTNKLCYEDDKLWSNWSQAMSIGENTDPTPKRENGRVPRPPDCPKCPAPEMLGGPSVFIFPPKPKDTLYITREPEVTCVVVDLDPEDPEVQISWFVDGKQMQTAKTQPREEQFNGTYRVVSVLPIGHQDWLKGKQFTCKVNNKALPSPIERTISKARGQAHQPSVYVLPPSREELSKNTVSLTCLIKDFFPPDIDVEWQSNGQQEPESKYRTTPPQLDEDGSYFLYSKLSVDKSRWQRGDTFICAVMHEALHNHYTQESLSHSPGK
notes: Homodimer; also called cIL-13Rα1-cFc-YTE
fold decrease in affinity against the unmodified cIL-13Rα1-cFc (canine IL-13): ~4 fold decrease

B6: Chimeric rat/canine 44E2 (antibody, V domains shown)
VH: QVQLKESGPGLVQPSQTLSLTCTVSGFSLTSNGVSWVRQPPGKGLEWIAAISSGGSTYYNSVLKSRLSISRDTSKSQVFLKMNSLQTEDTAIYFCTRRLSGYNYVPFAYWGQGTLVTVSS
VL: DIQMTQSPSLLSASVGDRVTLNCKASQNIYKHLAWCQQKLGEPPNLLISNANSLQTGIPSRFSGSGSGTDFTLTISSLQPEDVATYFCQQYYSGDTFGAGTKLELKR
EC50 (canine IL-31Rα (canine) [2]): 1.37 ng/mL

B7: cIL-13Rα2-cIgGB-Fc-YD CH2 Numbering (L18Y/T22D) (Fc fusion)
chain: SMLSNAEIKVNPPQDFEIVDPGYLGYLSLQWQPPLFPDNFKECTIEYELKYRNIDSENWKTIITKNLHYKDGFDLNKGIEAKINTLLPAQCTNGSEVRSSWAETTYWTSPQGNRETKIQDMDCVYYNWQYLVCSWKPGMGVHFDTNYQLFYWYEGLDHSAECTDYIKVNGKNMGCRFPYLESSDYKDFYICVNGSSESQPIRPSYFIFQLQNIVKPMPPDYLSLTVKNSEEINLKWNMPKGPIPAKCFIYEIEFTEDGTTWVTTTVENEIQITRTSNESQKLCFLVRSKVNIYCSDDGIWSEWSDEQCWKGDIWKETPKRENGRVPRPPDCPKCPAPEMLGGPSVFIFPPKPKDTLYIARDPEVTCVVVDLDPEDPEVQISWFVDGKQMQTAKTQPREEQFNGTYRVVSVLPIGHQDWLKGKQFTCKVNNKALPSPIERTISKARGQAHQPSVYVLPPSREELSKNTVSLTCLIKDFFPPDIDVEWQSNGQQEPESKYRTTPPQLDEDGSYFLYSKLSVDKSRWQRGDTFICAVMHEALHNHYTQESLSHSPGK
notes: Homodimer; also called cIL-13Rα2-cFc-YD
factor of decrease of KD against the unmodified cIL-13Rα2-cFc (canine IL-13): ~2 fold lower KD

B8: cIL-13Rα2-cIgGB-Fc-YTE CH2 Numbering (L18Y/A20T/T22E) (Fc fusion)
chain: SMLSNAEIKVNPPQDFEIVDPGYLGYLSLQWQPPLFPDNFKECTIEYELKYRNIDSENWKTIITKNLHYKDGFDLNKGIEAKINTLLPAQCTNGSEVRSSWAETTYWTSPQGNRETKIQDMDCVYYNWQYLVCSWKPGMGVHFDTNYQLFYWYEGLDHSAECTDYIKVNGKNMGCRFPYLESSDYKDFYICVNGSSESQPIRPSYFIFQLQNIVKPMPPDYLSLTVKNSEEINLKWNMPKGPIPAKCFIYEIEFTEDGTTWVTTTVENEIQITRTSNESQKLCFLVRSKVNIYCSDDGIWSEWSDEQCWKGDIWKETPKRENGRVPRPPDCPKCPAPEMLGGPSVFIFPPKPKDTLYITREPEVTCVVVDLDPEDPEVQISWFVDGKQMQTAKTQPREEQFNGTYRVVSVLPIGHQDWLKGKQFTCKVNNKALPSPIERTISKARGQAHQPSVYVLPPSREELSKNTVSLTCLIKDFFPPDIDVEWQSNGQQEPESKYRTTPPQLDEDGSYFLYSKLSVDKSRWQRGDTFICAVMHEALHNHYTQESLSHSPGK
notes: Homodimer; also called cIL-13Rα2-cFc-YTE
factor of decrease of KD against the unmodified cIL-13Rα2-cFc (canine IL-13): ~2 fold lower KD

B9: Chimeric rat/canine 28F12 (antibody, V domains shown)
VH: EVQLVESDGGLAQPGRSLKLSCAASGFTFSDYYMAWVRQAPTKGLEWVATISYDGSSTYYRDSVRGRFTISRDNAKSTLYLQMDSLRSEDTATYYCARGPLTDWAPNWFAYWGQGTLVTVSS
VL: DIQMTQSPASLSASLGETVTIQCQTSEDIYSGLAWYQQKPGKSPQFLIYGASRLEDGVPSRFSGSGSGTQYSLKISSMQTEDEGVYFCQQGLKYPNTFGAGTKLELKR
EC50 (canine IL-31Rα (canine) [2]): 1.66 ng/mL
EC50 (read off the curve) (canine IL-31Rα (canine) [2]): 1 ng/mL

B10: Caninized 10A12 H1L5 (antibody, V domains shown)
VH: EVQLVESGGDLVKPGGSLRLSCVASGFTFSNYYMAWVRQAPGKGLQWVASISTGGGNTYYRDSVKGRFTISRDNAKNTLYLQMNSLRAEDTAMYYCAKHGTLYFDYWGQGTLVTVSS
VL: QPVLTQPPSLSASLGTTARLTCERSSGDIGDSYVSWYQQKPGSPPRDLLYVDDQRPSGVSKSFSGSKDTSANAGLLLISGLQPEDEADYYCQSYDSNIDGPVFGGGTHLTVLG
EC50 (canine IL-31Rα (canine) [1]): 13.5 ng/mL

B11: Caninized 10A12 H2L6 (antibody, V domains shown)
VH: EVQLVESGGDLVKPGGSLRLSCAASGFTFSNYYMAWVRQAPGKGLQWVASISTGGGNTYYRDSVKGRFTISRDNAKNTLYLQMNSLRAEDTAMYYCARHGTLYFDYWGQGTLVTVSS
VL: QPVLTQPPSLSASLGTTARLTCERSSGDIGDSYVSWYQQKPGSPPRDVIYVDDQRPSEVSKSFSGSKDTSANAGLLLISGLQPEDEADYFCQSYDSNIDGPVFGGGTHLTVLG
EC50 (canine IL-31Rα (canine) [1]): 0.34 ng/mL

B12: Caninized 44E2 H5k1 (antibody, V domains shown)
VH: ELTLQESGPGLVKPSQTLSLTCTVSGFSLTSNGVSWIRQRPGRGLEWMGAISSGGSTYYNSVLKSRISITADTAKNQFSLQLSSMTTEDTAVYYCARRLSGYNYVPFAYWGQGTLVTVSS
VL: EIVMTQSPASLSLSQEEKVTITCKASQNIYKHLAWYQQKPGQAPKLLIYNANSLQTGVPSRFSGSGSGTDFSFTISSLEPEDVAVYYCQQYYSGDTFGAGTKVELKR
EC50 (canine IL-31Rα (canine) [2]): 1.35 ng/mL

B13: Caninized 44E2 H5k2 (antibody, V domains shown)
VH: ELTLQESGPGLVKPSQTLSLTCTVSGFSLTSNGVSWIRQRPGRGLEWMGAISSGGSTYYNSVLKSRISITADTAKNQFSLQLSSMTTEDTAVYYCARRLSGYNYVPFAYWGQGTLVTVSS
VL: EIVMTQSPASLSLSQEEKVTITCKASQNIYKHLAWYQQKPGQAPKLLIYNANSLQTGIPSRFSGSGSGTDFSFTISSLEPEDVAVYFCQQYYSGDTFGAGTKVELKR
EC50 (canine IL-31Rα (canine) [2]): 3.97 ng/mL
